# T1: O. sativa Cellulose Synthase Catalytic Subunit, RSW1-Like, bait fragment aa 316-583 (Oryza sativa, UniProt A2Y0X2 316-583)
# T1 construct: bait; also called OsCS; PN19707
# T1 sequence: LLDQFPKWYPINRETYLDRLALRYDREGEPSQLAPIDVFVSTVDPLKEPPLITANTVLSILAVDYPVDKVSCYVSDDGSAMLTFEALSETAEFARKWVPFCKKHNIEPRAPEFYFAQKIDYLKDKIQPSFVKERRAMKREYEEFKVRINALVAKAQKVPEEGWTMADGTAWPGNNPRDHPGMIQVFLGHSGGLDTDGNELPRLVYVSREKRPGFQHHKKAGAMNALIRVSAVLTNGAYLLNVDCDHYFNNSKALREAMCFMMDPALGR
# T2: O. sativa 14-3-3 Protein Homolog GF14-c, bait fragment aa 1-150 (Oryza sativa, UniProt Q6ZKC0 1-150)
# T2 construct: bait; also called OsGF14-c; PN12464
# T2 sequence: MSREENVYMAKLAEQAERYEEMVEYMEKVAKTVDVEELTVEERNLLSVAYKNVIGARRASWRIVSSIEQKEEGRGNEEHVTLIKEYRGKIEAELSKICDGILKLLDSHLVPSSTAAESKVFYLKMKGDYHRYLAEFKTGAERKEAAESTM
# Biological target: T1, O. sativa Cellulose Synthase Catalytic …
# Experiment: yeast two-hybrid
# Protocol: Yeast carrying the target gene construct was combined with yeast carrying the activation domain library. The two yeast strains mated to form diploid yeast and were plated on media that selected for expression of one or more Ga14p-responsive reporter genes. Thus, both hybrid proteins (i.e., the target “bait” protein and the activation domain “prey” protein) were expressed in a yeast reporter strain where an interaction between the test proteins results in transcription of the reporter genes […]. Colonies that arose after incubation were selected for further characterization. The activation domain plasmid was isolated from each colony obtained in the two-hybrid search. The sequence of the insert in this construct was obtained by sequence analysis (e.g., Sanger's dideoxy nucleotide chain termination method; see Ausubel et al., 1988, including updates up to 2002). Thus, the identity of positives obtained from these searches was determined by sequence analysis against proprietary and public (e.g., GENBANK®) nucleic acid and protein databases.
# A second bait, namely O. sativa Cellulose Synthase Catalytic Subunit, RSW1-Like (OSCS; PN19707; GENBANK® Accession No. AF030052), was also used.
row,Binder,binding result
1,"O. sativa salT Gene Product, prey clone aa 6-145 (other, prey; AD fusion; output trait library; also called OsAAB53810; PN29086) IGPWGGNGGSAQDISVPPKKLLGVTIYSSDAIRSIAFNYIGVDGQEYAIGPWGGGESTSTEIKLGSSEQIKEISGTHGPVYDLADIVTYLKIVTSANNTYEAGVPNGKEFSIPLQDSGHVVGFFGRSGTLIDAIGIYVHP",binds
2,"O. sativa Cellulose Synthase Catalytic Subunit, RSW1-Like, prey clone aa 316-582 (enzyme, prey; AD fusion; input trait library; also called OsCS; PN19707) LLDQFPKWYPINRETYLDRLALRYDREGEPSQLAPIDVFVSTVDPLKEPPLITANTVLSILAVDYPVDKVSCYVSDDGSAMLTFEALSETAEFARKWVPFCKKHNIEPRAPEFYFAQKIDYLKDKIQPSFVKERRAMKREYEEFKVRINALVAKAQKVPEEGWTMADGTAWPGNNPRDHPGMIQVFLGHSGGLDTDGNELPRLVYVSREKRPGFQHHKKAGAMNALIRVSAVLTNGAYLLNVDCDHYFNNSKALREAMCFMMDPALG",binds
3,"Novel Protein PN29115, Fragment, Similar to A. thaliana 6,7-Dimethyl-8-Ribityllumazine Synthase Precursor, prey clone aa 1-188 (other, prey; AD fusion; output trait library; also called OsPN29115) VSFPYSPRPAALAAGARASRVSPVVVAAGGGHQRLMGSLTNTQGLRFGVVVARFNEIVTNLLLQGALETFERYSVKKENITVLSVPGSFEIPVAAQKLGKSGKFDANFVHWRCAFRGDTTHYGAVANSAASGVLSAGLSAEIPCIFGVLTCDDMDQALNRAGGKAGNKGAEAALTAIEMASLFQHHLA",binds
4,"O. sativa DNAJ Homologue, prey clone aa 1-92 (other, prey; AD fusion; output trait library; also called OsPN29113) CKVSYIDAILGTTVKVPTVDGMVDLKIPSGTQPGTTLVMSKKGVPLLGKSNARGDQLVRVQVEIPKRLSSDERKLIEELANLNKAQTANSRR",binds
5,"Novel Protein PN29116, Fragment, prey clone aa 1-169 (other, prey; AD fusion; output trait library; also called OsPN29116) GRKPVAAQHYNKGDKDGTSTGSRCTSVAWVPEREGIFVVSHSDGNLYVYDKCKDGNTECTFPAIKDPAQLMISHAKSSKSNPIARWHVCQGSINAISFSPDGAYLATVGRDGYLRVFDFSKEQLIFGGKSYYGALLCCTWSSDGKYLLTGGEDDLVQVWSMDDRKIVAW",binds
6,"Novel Protein PN29117, prey clone aa 1-151 (printed -7-151) (other, prey; AD fusion; output trait library; clone also holds a small portion (-7 to 0) of the 5' untranslated region; also called OsPN29117; BAG-like protein) MLVQRRDGDTGPAVRLRVSHGASFRDVAVPAHSTFGELKGVLTQATGVEPERQRLFFRGKEKSDNEFLHTAGVKDGAKLLLLEKPAPANVEQRAEPVIMDESMMKACEAVGRVRAEVDRLSAKVCDLEKSVFAGRKIEDKDFVVLTELLMM",binds
7,"Novel Protein PN29119, Fragment, prey clone aa 1-155 (printed -53 to 155) (other, prey; AD fusion; output trait library; clone also holds a portion of the 5' untranslated region; also called OsPN29119) MEFEADGARWPEPRGDAAGAPPLERGDAPSPRFDSSRALRLLRELGSNVTEDLVVLMPNLLSFLKHDDPVVVNQSIASGTNLFAAVLEEMTLQINKCGRVDAWLEEMWAWTKQFKDAVHNLIHESVPVATKLFAVKFIETWILCFAPQSKSDRMQ",binds
8,"Novel Protein PN29084, Fragment, Similar to Soybean (Glycine max) Calcium-Dependent Protein Kinase, prey clone aa 1-253 (other, prey; AD fusion; output trait library; three clones; also called OsPN29084) ESGIFRQILRGKLDLESDPWPSISDSAKDLVRNMLIRDPTKRFTAHEVLCHPWIVDDAVAPDKPIDSAVLSRLKHFSAMNKLKKMALRVIAESLSEEEIGGLKELFKMIDTDNSGTITYDELKNGLKRVGSDLMEPEIQALMDAADIDNSGTIDYGEFLAATLHMNKLEREENLVSAFTFFDKDGSGFITIDELSQACEQFGLSDVHLEDMIKDVDQNNDGQIDYSEFAAMMRKGNAGGANAGGVTSTGGTGR",binds
9,"O. sativa Aquaporin, prey clone aa 123-290 (other, prey; AD fusion; output trait library; also called OsPIP2A; OsPIP2a) RKVSLVRAILYIVAQCLGAICGVGLVNAFPNAYFNRYGGGANTLAAGYSKGTGLAAEIIGTFVLVYTVFSATDPKRNARDSHVPVLAPLPIGFAVFMVHLATIPITGTGINPARSIGAAVIFNNEKAWHNHWIFWVGPFVGAAIAAFYHQYILRAGAIKALGSFRSNA",binds
10,"Novel Protein PN29076, Fragment, prey clone aa 1-187 (other, prey; AD fusion; output trait library; also called OsPN29076) ERDISMVNSYPPSAFDCKGWNSASIFIYESDEEIQCLLDWLRDYDPREKELKDSILQWQRHFCHQSSSPLVDPPISGPKGEQLMELPNTKAAVILEQKYGLQLDQDTSDLPKKRGKKIKLSSEDRTYRCDCLEPVWPSRYHCLTCHETYLISTEFEGHNDGKCSKIHQSPDESRENDEPKVKVTKSD",binds
11,"Novel Protein PN29077, Fragment, Similar to A. thaliana DNA-Damage Inducible Protein DDI1-Like, prey clone aa 1-242 (other, prey; AD fusion; output trait library; four clones; also called OsPN29077) VEAQKKIEAAIRQKGIDENWEAALEHNPEAFARVVMLYVDMEVNGVPLKAFVDSGAQSTIISKSCAERCGLLRLLDQRYRGVAIGVGQSEILGRIHVAPIKIGHVFYPCSFTVLDAPNMEFLFGLDMLRKHQCIIDLKDNVLRVGGGEVSVPFLQEKDIPSHIRDEEKLSKLASLSQGAAGESSTAREKTPDAPPRAPTTGAPAVNPPQPQGGGDFEAKVTKLVELGFDRASVIQALKLFNG",binds

# Biological target: T2, O. sativa 14-3-3 Protein Homolog …
# Experiment: yeast two-hybrid
row,Binder,binding result
1,"OsContig4331, O. sativa Putative 33 kDa Oxygen-Evolving Protein of Photosystem II, prey clone aa 193-333 (other, prey; AD fusion; input trait library; also called OsPN23059) DGIDYAAVTVQLPGGERVPFLFTIKNLVATGKPESFGGPFLVPSYRGSSFLDPKGRGGSTGYDNAVALPAGGRGDEEELAKENVKNASSSTGNITLSVTKSKPETGEVIGVFESVQPSDTDLGAKVPKDVKIQGVWYAQLE",binds
2,"SPEEWSPTGDTYVGGTTGLLIWAVTLAGLLGGGALLVYNTSALAG (other, prey; AD fusion; input trait library; also called OsAAB46718; PN22840) [O. sativa Photosystem II 10 kDa Polypeptide, prey clone aa 82-126]",binds
3,"AIDTYDDHRMAMAFSLAACADVPVTIRDPGCTRKTFPNYFDVLSTFVRN (enzyme, prey; AD fusion; input trait library; also called OsBAB61062; PN22844) [O. sativa 3-Phosphoshikimate 1-carboxyvinyltransferase (a.k.a. EPSP Synthase), prey clone aa 463-511]",binds
4,"O. sativa Fructose-Bisphosphate Aldolase, Chloroplast Precursor, prey clone aa 206-269 (enzyme, prey; AD fusion; input trait library; also called OsBAA02730; PN22832) QDNGLVPIVEPEILLDGEHGIDRTFEVAQKVWAETFFYMAENNVMFEGILLKPSMVTPGAECKD",binds
5,"Hypothetical Protein OsContig3864, Similar to H. vulgare Photosystem I Reaction Center Subunit II, Chloroplast Precursor, prey clone aa 94-203 (other, prey; AD fusion; input trait library; also called OsPN23061) VITWTSPKEQVFEMPTGGAAIMREGPNLLKLARKEQCLALGTRLRSKYKINYQFYRVFPNGEVQYLHPKDGVYPEKVNAGRQGVGQNFRSIGKNVSPIEVKFTGKNVFDI",binds
6,"Novel Protein 22858, Fragment, similar to Arabidopsis GTP Cyclohydrolase II, prey clone aa 27-154 (other, prey; AD fusion; input trait library; also called OsPN22858) DKPTDGFSSIDEAIGALHEGKFVIAVDDESGDNEGDLVMAATLADPESIAFMIRNGSGIISVGMKEEDLTRLMIPMMSPIAEIEDISAAASTVTVDARVGISTGVSAADRAKTIFTLASPDSKPTDLR",binds
7,"Novel Protein PN22866, Fragment, Similar to A. thaliana Vacuolar ATP Synthase Subunit C, prey clone aa 95-305 (other, prey; AD fusion; input trait library; also called OsPN22866) LLALSDDLVKSNVFIEGVSHKIRRQIEELERAGGVESGALTVDGVPVDTYLTRFVWDEGKYPTMSPLKEIAGSIQSQVSKIEDDMKVRGAEYNNVRSQLNAINRKQTGSLAVRDLSNLVKPEDMVTSEHLVTLLAVVPQYSQKDWLSSYESLDTFVVPRSSKKLYEDNEYALYTVTLFAKVVDNFKVRAREKGFQVRDFEYSSEAQESRKE",binds
8,"Novel Protein PN30846 (putative dynamin homolog), prey clone aa 1-266 (other, prey; AD fusion; input trait library; also called OsPN30846) APRRPSTFLNAVALGNVGAGKSAVLNSLIGHPVLPTGENGATRAPIVVDLQRDPGLSSKSIVLQIDSKSQRVSASSLRHSLQDRLSKGASSGSSRGRVEGINLKLRTSTAPPLKLVDLPGIDQRAVDDPMINEYAGHNDAILLVVIPAMQAADVASSRALRLAKDIDADGTRTVGVISKVDQAEGDAKTIACVQALLLNKGPKNLPDIEWVALIGQSVAIASAQAAGSENSLETAWNAEAETLRSILTGAPKSKLGRIALVDTIAK",binds
9,"O. sativa Ribulose Bisphosphate Carboxylase/Oxygenase Activase, Large Isoform A1, prey clone aa 68-210 (enzyme, prey; AD fusion; input trait library; also called OsRCAA1; PN19842) DISDDQQDITRGKGFVDSLFQAPTGDGTHEAVLSSYEYLSQGLRTYDFDNTMGGFYIAPAFMDKLVVHISKNFMTLPNIKVPLILGIWGGKGQGKSFQCELVFAKMGINPIMMSAGELESGNAGEPAKLIRQRYREAADIIKK",binds
10,"Novel Protein PN29982, prey clone aa 201-300 (other, prey; AD fusion; input trait library; also called OsPN29982) SPVVDNADVTETKPQTELPVHVMCAEWSSQKRLKKVQLETLERVYSRTKRPTNTMISSIVQVTSLPRKTIVKWFEDRREQDGVPDHRVAFKRSLSETIAS",binds
11,"OsContig4331, O. sativa Putative 33 kDa Oxygen-Evolving Protein of Photosystem II, prey clone aa 90-169 (other, prey; AD fusion; input trait library; also called OsPN23059) PRRLTFDEIQSKTYMEVKGTGTANQCPTVEGGVDSFAFKAGKYNMKKFCLEPTSFTVKAEGVAKNAPPEFQKTKLMTRLT",binds
12,"Novel Protein 22874, Fragment, similar to Arabidopsis Putative Phosphatidylinositol-4-phosphate 5-kinase, prey clone aa 1-88 (other, prey; AD fusion; input trait library; also called OsPN22874; rice PI4P5K) GTNPGFRVGEIRLSNRDIYFGTLLGNTPEGSGRYVWSDGCTYDGEWRRGMRHGQGKTMWPSGATYEGEYSGGYIYGEGTYTGSDNIVY",binds
13,"Novel Protein PN30974, prey clone aa 38-178 (other, prey; AD fusion; input trait library; also called OsPN30974) GGYDHPGLIPGLPDEISLQILARMPRMGYLNAKMVSRSWKAAITGVELYRVRKELGVSEEWLYMLTKSDDGKLVWNAFDPVCGQWQRLPLMPGISHGGECKRGIPGLWLGDLLSAGIRVSDVIRGWLGQRDSLDRLPFCGC",binds
